B1: M. tuberculosis AccD1 (Rv2502c), hexa-histidine tagged (natural protein)
chain: MTTPSIAIAPSFADEHRRLVAELNNKLAAAALGGNERARKRHVSRGKLLPRERVDRLLDPGSPFLELAPLAAGGMYGDESPGAGIITGIGRVSGRQCVIVANDATVKGGTYYPMTVKKHLRAQEVALQNMLPCIYLVDSGGAFLPRQDEVFPDREHFGRIFYNQATMSAKGIPQVAAVLGSCTAGGAYVPAMSDEAVIVREQGTIFLGGPPLVKAATGEIVSAEELGGGDLHSRTSGVTDHLADDDEDALRIVRAIADTFGPCEPAQWDVRRSVEPKYPQAELYDVVPPDPRVPYDVHEVVVRIVDGSEFSEFKAKYGKTLVTAFARVHGHPVGIVANNGVLFSESALKGAHFIELCDKRKIPLLFLQNIAGFMVGRDYEAGGIAKHGAKMVTAVACARVPKLTVVIGGSYGAGNYSMCGRAYSPRFLWMWPNARISVMGGEQAASVLATVRGEQLSAAGTPWSPDEEEAFKAPIRAQYEDQGNPYYSTARLWDDGIIDPADTRTVVGLALSLCAHAPLDQVGYGVFRM
notes: also called CT β-subunit of the M. tuberculosis MCC; not shown: His6, N-terminal, kept
B2: M. tuberculosis AccA1 (Rv2501c) (natural protein)
chain: MFDTVLVANRGEIAVRVIRTLRRLGIRSVAVYSDPDVDARHVLEADAAVRLGPAPARESYLDIGKVLDAAARTGAQAIHPGYGFLAENADFAAACERARVVFLGPPARAIEVMGDKIAAKNAVAAFDVPVVPGVARAGLTDDALVTAAAEVGYPVLIKPSAGGGGKGMRLVQDPARLPEALVSARREAMSSFGDDTLFLERFVLRPRHIEVQVLADAHGNVVHLGERECSLQRRHQKVIEEAPSPLLDPQTRERIGVAACNTARCVDYVGAGTVEFIVSAQRPDEFFFMEMNTRLQVEHPVTEAITGLDLVEWQLRVGAGEKLGFAQNDIELRGHAIEARVYAEDPAREFLPTGGRVLAVFEPAGPGVRVDSSLLGGTVVGSDYDPLLTKVIAHGADREEALDRLDQALARTAVLGVQTNVEFLRFLLADERVRVGDLDTAVLDERSADFTARPAPDDVLAAGGLYRQWALARRAQGDLWAAPSGWRGGGHMAPVRTAMRTPLRSETVSVWGPPESAQVQVGDGEIDCASVQVTREQMSVTISGLRRDYRWAEADRHLWIADERGTWHLREAEEHKIHRAVGARPAEVVSPMPGSVIAVQVESGSQISAGDVVVVVEAMKMEHSLEAPVSGRVQVLVSVGDQVKVEQVLARIKD
notes: also called BC α-subunit of the M. tuberculosis MCC

Tests used:
[1] = target: B2; assay: pull-down; conditions: partners not purified
[2] = target: the molecule itself; assay: negative-stain electron microscopy

Row | Binder | binding result [1] | stoichiometry N [2]
1 | B1 | binds | 6
2 | B2 |  | 3

Source: PMC4347857, “Characterization of the Mycobacterial Acyl-CoA Carboxylase Holo Complexes Reveals Their Functional Expansion into Amino Acid Catabolism” (PLoS Pathogens, 2015)
